T1: mouse IL-2Rγ (mouse, UniProt P34902 23-263)
T1 construct: also called mo IL-2R
T1 sequence (looked up): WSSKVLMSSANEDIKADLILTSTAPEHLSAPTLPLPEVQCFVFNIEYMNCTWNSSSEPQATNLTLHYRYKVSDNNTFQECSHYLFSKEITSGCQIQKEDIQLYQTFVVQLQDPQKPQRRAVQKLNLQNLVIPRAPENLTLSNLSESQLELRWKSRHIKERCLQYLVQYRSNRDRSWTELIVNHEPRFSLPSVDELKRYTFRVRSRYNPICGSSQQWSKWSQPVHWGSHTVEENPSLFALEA

T2: human IL-2Rγ (common cytokine receptor γ-chain) (human, UniProt P31785 23-262, limits assumed)
T2 construct: Recombinant protein coated on the plate or immobilised on a CM5 chip; also called hu IL-2R; CD132
T2 sequence: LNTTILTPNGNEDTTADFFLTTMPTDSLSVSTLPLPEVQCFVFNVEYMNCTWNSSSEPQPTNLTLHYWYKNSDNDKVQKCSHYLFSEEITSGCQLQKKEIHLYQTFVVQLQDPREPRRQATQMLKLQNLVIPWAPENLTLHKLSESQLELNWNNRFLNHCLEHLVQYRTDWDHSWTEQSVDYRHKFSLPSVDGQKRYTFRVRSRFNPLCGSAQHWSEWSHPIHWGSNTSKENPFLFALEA

T3: human IL-2Rα (human, UniProt P01589 22-240, limits assumed)
T3 construct: recombinant protein; also called hu IL-2R; human IL-2Ra
T3 sequence: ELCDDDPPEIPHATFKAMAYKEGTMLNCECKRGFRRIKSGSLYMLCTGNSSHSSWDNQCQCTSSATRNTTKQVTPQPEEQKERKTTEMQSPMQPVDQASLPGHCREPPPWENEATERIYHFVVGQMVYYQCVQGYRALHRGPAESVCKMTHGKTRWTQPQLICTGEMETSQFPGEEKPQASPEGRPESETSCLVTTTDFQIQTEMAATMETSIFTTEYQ

T4: mouse IL-2Rα (mouse, UniProt P01590 22-236, limits assumed)
T4 construct: recombinant protein; also called mo IL-2R; mouse IL-2Ra
T4 sequence (looked up): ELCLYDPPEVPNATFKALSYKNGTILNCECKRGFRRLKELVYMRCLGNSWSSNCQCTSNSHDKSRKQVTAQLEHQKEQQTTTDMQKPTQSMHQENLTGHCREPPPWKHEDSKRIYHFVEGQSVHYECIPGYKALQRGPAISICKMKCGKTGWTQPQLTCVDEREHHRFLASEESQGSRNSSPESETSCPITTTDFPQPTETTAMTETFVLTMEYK


How the values were obtained:
[1] = biological target: T1, mouse IL-2Rγ; assay: SPR off-rate ranking, periplasmic extract on immobilised protein
In short: (§1)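 CM5 chip, amine coupling (acetate buffer), ~2500 RU receptor. VHH P.E. flowed at 30 uL/min; off-rate read over 120 s.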

[2] = biological target: T2, human IL-2Rγ (common cytokine receptor …); assay: as above
In short: as §1

[3] = biological target: T1, mouse IL-2Rγ; assay: PE binding ELISA, periplasmic extract on coated protein
In short: (§2)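 Read-out: OD at 450 nm, specificity called versus negative controls. Receptor chains (human or mouse IL-2Rα, β, γ) were coated directly overnight at 4° C; 4% Marvel/PBS block 1 h; P.E. at 1:5 dilution in 1% Marvel/PBS incubated 1 h.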

[4] = biological target: T2, human IL-2Rγ (common cytokine receptor …); assay: as above
In short: as §2

[5] = biological target: T3, human IL-2Rα; assay: SPR, P.E. on immobilised antigen
In short: as §1

[6] = biological target: T4, mouse IL-2Rα; assay: SPR, P.E. on immobilised antigen
In short: as §1

[7] = biological target: T3, human IL-2Rα; assay: ELISA, P.E. on coated antigen
In short: as §2

[8] = biological target: T4, mouse IL-2Rα; assay: ELISA, P.E. on coated antigen
In short: as §2

Row | koff [1] [s⁻¹] | koff [2] [s⁻¹] | OD (PE binding ELISA) [3] [OD450 nm] | OD (PE binding ELISA) [4] [OD450 nm] | koff [5] [s⁻¹] | koff [6] [s⁻¹] | OD (PE binding ELISA) [7] [OD450 nm] | OD (PE binding ELISA) [8] [OD450 nm] | Binder
1 | 0.116 | 0.00344 | 0.074 | 0.936 | – | – | – | – | FJ1427_P035MP04B12 (VHH, VHH in periplasmic extract; also called clone nr) VHH: QVQLVESGGGLVQAGGSLRLSCAASGRTLSRYAMGWFRQAPGKEREFVTANSWGGDTYYADSVQGRFTFSRDNAKNTVYLQMNSLQPEDTAVYYCAAAPTSFATTAYSSSNSYAYWGQGTQVTVSS
2 | – | – | – | – | 0.000169 | 0.0442 | 2.35 | 0.047 | 9-MP05G01 (VHH, periplasmic extract; also called FJ1427_P035MP05G01) VHH: EVQLVESGGGLVQAGGSLRLSCAASGGSIYTYNMGWFRQAPGKEREFVAGTLWSGGDSVYADFAKGRFTLSRENAKNTLYLQMNSLKPEDTATYYCAIDPLSLTSDWRVDELSSWGKGTLVTVSS
3 | – | – | – | – | 0.000258 | 0.256 | 2.49 | 0.046 | 4-MP01F04 (VHH, periplasmic extract; also called FJ1427_P035MP01F04) VHH: QVQLVESGGGLVQAGGSLRLSCAASGGTFRTRNMGWFRRAPGKEREFVAAVSWNVDNKLYADSVKGRFTISRDNGRNMVYLQMNSLKPEDTAVYYCAADNIPLSSDMRPTATEYDYWGQGTQVTVSS
4 | – | – | – | – | 0.00158 | 0.196 | 2.38 | 0.046 | FJ1427_P035MP05E04 (VHH, periplasmic extract; also called clone nr) VHH: QVQLVESGGGLVQAGGSLRLSCAASGGTFRTRNMGWFRRAPGKEREFVAAVSWSVDNKLYAGSVKGRFTISRDNGRNMVYLQMNSLKPEDTAVYYCAADNIPLSSDMRPTATEFGYWGQGTRVTVSS
5 | – | – | – | – | 0.0012 | 0.00321 | 2.18 | 0.24 | FJ1427_P035MP05A10 (VHH, periplasmic extract; also called clone nr) VHH: QLQLVESGGGLVQAGGSLRLSCTASGLTFDGYAIGWFRQAPGKEREGVSYITGSDGSTYYIDSVKGRFTISSDIAKSTVYLQMNSLKPEDTAVYYCAVDRLGSRGLYASSWWRSGDMDLWGKGTLVTVSS
6 | – | – | – | – | 0.00108 | 0.00284 | 2.09 | 0.107 | FJ1427_P035MP05D10 (VHH, periplasmic extract; also called clone nr; 460) VHH: QVQLVESGGGLVQAGGSLRLSCTASGLTFDGYAIGWFRQAPGKEREGVSYITGSDGSTYYRDSVKGRFTISSDNAKSTVYLQMNTLKPEDTAVYYCAVDRLGSRGLYASSWWRSGDMDLWGKGTLVTVSS
7 | – | – | – | – | 0.000908 | 0.00258 | 2.39 | 0.38 | FJ1427_P035MP05G08 (VHH, periplasmic extract; also called clone nr) VHH: QLQLVESGGGLVQAGGSLRLSCTASGLTFEGYAIGWFRQAPGKEREGVSYITGSDASTYYIDSVKGRFTISSDFAKSTVYLQMNNLKPEDTAVYYCAVDRLGSRGGYASSWWRSGDMDLWGKGTLVTVSS
8 | – | – | – | – | 0.00044 | 0.000844 | 2.14 | 0.632 | FJ1427_P035MP05C11 (VHH, periplasmic extract; also called clone nr) VHH: QVQLVESGGGLVQAGGSLRLSCTASGLTFEGYAIGWFRQAPGKEREGVSYITGSDASTYYIDSVKGRFTISSDFAKSTVYLQMNNLKPEDTAVYYCAVDRLGSRGGYASSWWRSGDMDLWGKGTLVTVSS
9 | – | – | – | – | 0.00169 | 0.00177 | 2.27 | 0.718 | FJ1427_P035MP05E10 (VHH, periplasmic extract; also called clone nr) VHH: EVQLVESGGGLVQAGGSLRLSCTASGLTFDGYAIGWFRQAPGKEREGVSYITGSDGSTYYIDSVKGRFTISSDIAKSTVYLQMNSLKPEDTAVYYCAVDRLGSRGLYASSWWRSGDMDLWGKGTLVTVSS
10 | – | – | – | – | 0.0012 | 0.00163 | 2.22 | 0.163 | 11-MP05H04 (VHH, periplasmic extract; also called FJ1427_P035MP05H04) VHH: QLQLVESGGGLVQAGGSLRLSCAASGLTFEGYAIGWFRQAPGKEREGVSYITGSDGTTYYINSVKGRFTISSDNAKSTVYLQMNTLKPEDTAVYYCAVDRLGSQGRYASAWWRSGDMDLWGKGTQVTVSS
